Residue numbers refer to the chain shown, from its start. One block for each binder: values may come before it.
Experiments:
Assay in all cases: cell-based or functional assay
[1] = target: human factor Xa (human, UniProt P00742 41-179; P00742 235-488, limits assumed)
[2] = target: T1, human neutrophil cathepsin G (human, UniProt P08311 21-244)
T1 sequence (looked up): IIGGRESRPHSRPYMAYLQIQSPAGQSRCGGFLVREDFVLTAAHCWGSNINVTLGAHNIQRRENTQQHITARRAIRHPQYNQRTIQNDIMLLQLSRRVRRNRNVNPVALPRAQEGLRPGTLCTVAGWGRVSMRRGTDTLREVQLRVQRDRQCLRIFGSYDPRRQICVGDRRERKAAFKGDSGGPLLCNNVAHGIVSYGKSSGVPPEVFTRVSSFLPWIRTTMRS

[3] = target: T2, human neutrophil elastase (human, UniProt P08246 30-247, limits assumed)
T2 sequence (looked up): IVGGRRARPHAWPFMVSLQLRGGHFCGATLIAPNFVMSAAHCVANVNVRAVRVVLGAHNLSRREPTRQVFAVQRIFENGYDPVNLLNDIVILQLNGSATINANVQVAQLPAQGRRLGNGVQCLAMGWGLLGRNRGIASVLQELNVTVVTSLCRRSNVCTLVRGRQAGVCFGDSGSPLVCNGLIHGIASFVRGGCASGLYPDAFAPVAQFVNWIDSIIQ

[4] = target: human thrombin (human, UniProt P00734 328-622)
[5] = target: factor Xa (human, UniProt P00742 41-179; P00742 235-488, limits assumed)
[6] = target: thrombin (human, UniProt P00734 328-622)

Sequence of factor Xa (P00742 41-179 limits assumed, chain 1 of 2): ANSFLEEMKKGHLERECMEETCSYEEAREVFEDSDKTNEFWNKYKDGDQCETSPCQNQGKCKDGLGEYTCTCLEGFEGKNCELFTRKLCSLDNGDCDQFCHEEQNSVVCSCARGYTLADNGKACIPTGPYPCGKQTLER
Sequence of factor Xa (P00742 235-488 limits assumed, chain 2 of 2): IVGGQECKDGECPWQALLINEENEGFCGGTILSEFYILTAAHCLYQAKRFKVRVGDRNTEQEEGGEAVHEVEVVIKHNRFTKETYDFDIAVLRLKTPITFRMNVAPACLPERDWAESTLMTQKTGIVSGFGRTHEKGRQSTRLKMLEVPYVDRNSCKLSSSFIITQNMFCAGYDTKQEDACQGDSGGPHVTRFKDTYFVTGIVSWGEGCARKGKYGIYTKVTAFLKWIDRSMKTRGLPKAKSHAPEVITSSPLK
Sequence of human factor Xa (P00742 41-179 limits assumed, chain 1 of 2): as the sequence (P00742 41-179 limits assumed, chain 1 of 2) above
Sequence of human factor Xa (P00742 235-488 limits assumed, chain 2 of 2): as the sequence (P00742 235-488 limits assumed, chain 2 of 2) above

B2: LEAI.473 (other)
chain: SPVDICTAKPRDIPMNPMCIYRSPEKKATEDEGSEQKIPEATNRRVWELSKANSRFATTFYQHLADSKNDNDNIFLSPLSISTAFAMTKLGACNDTLQQLMEVFKFDTISEKTSDQIHFFFAKLNCRLYRKANKASKLVSANRLFGDKSLTFNETYQDISELVYGAKLQPLDFKENAEQSRAAINKWVSNKTEGRITDVIPSEAINELTVLVLVNTIYFKGLWKSKFSPENTRKELFYKADGESCSASMMYQEGKFRYRRVAEGTQVLELPFKGDDITMVLILPKPEKSLAKVEKELTPEVLQEWLDELEEMMLVVHMPRFRIEDGFSLKEQLQDMGLVDLFSPEKSKLPGIVAEGRDDLYVSDAFHKAFLEVNEEGSEAAASTALEADGRSLNPNRVTFKANRPFLVFIREVPLNTIIFMGRVANPCVK
IC50 fXa/UFH; HCA #4 [5]: 0.028 µM
IC50 IIa/UFH; HCA #4 [6]: > 1 µM

B3: LEAI (other)
chain: B2 chain with D389I
IC50 fXa/UFH; HCA #2 [5]: 0.037 µM
IC50 IIa/UFH; HCA #2 [6]: 0.045 µM

B4: LEAQ.518 (other)
chain: B2 chain with A385T, D389Q
IC50 fXa/UFH (HCA #6) [1]: 0.027 µM
rsd Xa, no add (CA #52, stg 1 conc 200) [1]: 3%
rsd IIa, catG (CA #52, stg 1 conc 200) [2]: 2%
rsd Xa, catG (CA #52, stg 1 conc 200) [2]: 1%
rsd IIa, HNE (CA #52, stg 1 conc 200) [3]: 3%
rsd Xa, HNE (CA #52, stg 1 conc 200) [3]: 2%
IC50 IIa/UFH (HCA #6) [4]: 0.05 µM
rsd IIa, no add (CA #52, stg 1 conc 200) [4]: 4%

B5: 13C.432 (other)
chain: B2 chain with A385E, A388I, D389A
IC50 fXa/UFH; HCA #2 [1]: 0.045 µM
IC50 IIa/UFH; HCA #2 [4]: 0.46 µM

Next, values leading:

IC50 fXa/UFH (HCA #5) [1]: 0.016 µM
rsd Xa, no add (CA #51, stg 1 conc 200) [1]: 1%
rsd IIa, catG (CA #51, stg 1 conc 200) [2]: 0%
rsd Xa, catG (CA #51, stg 1 conc 200) [2]: -2%
rsd IIa, HNE (CA #51, stg 1 conc 200) [3]: 0%
rsd Xa, HNE (CA #51, stg 1 conc 200) [3]: 1%
IC50 IIa/UFH (HCA #5) [4]: 0.018 µM
rsd IIa, no add (CA #51, stg 1 conc 200) [4]: 0%
B1: LEAQ.505 (other)
chain: B2 chain with E387Q, D389Q

IC50 fXa/UFH (HCA #5) [1]: 0.016 µM
IC50 fXa/UFH (HCA #6) [1]: 0.02 µM
rsd Xa, no add (CA #51, stg 1 conc 200) [1]: -1%
rsd Xa, no add (CA #52, stg 1 conc 200) [1]: 3%
rsd IIa, catG (CA #51, stg 1 conc 200) [2]: 0%
rsd IIa, catG (CA #52, stg 1 conc 200) [2]: 6%
rsd Xa, catG (CA #51, stg 1 conc 200) [2]: -1%
rsd Xa, catG (CA #52, stg 1 conc 200) [2]: 1%
rsd IIa, HNE (CA #51, stg 1 conc 200) [3]: 1%
rsd IIa, HNE (CA #52, stg 1 conc 200) [3]: 52%
rsd Xa, HNE (CA #51, stg 1 conc 200) [3]: -3%
rsd Xa, HNE (CA #52, stg 1 conc 200) [3]: 10%
IC50 IIa/UFH (HCA #5) [4]: 0.016 µM
IC50 IIa/UFH (HCA #6) [4]: 0.018 µM
rsd IIa, no add (CA #51, stg 1 conc 200) [4]: 1%
rsd IIa, no add (CA #52, stg 1 conc 200) [4]: 1%
B6: LEAQ.509 (other)
chain: B2 chain with E387V, D389Q

IC50 fXa/UFH (HCA #5) [1]: 0.055 µM
rsd Xa, no add (CA #51, stg 1 conc 200) [1]: -2%
rsd IIa, catG (CA #51, stg 1 conc 200) [2]: 2%
rsd Xa, catG (CA #51, stg 1 conc 200) [2]: -2%
rsd IIa, HNE (CA #51, stg 1 conc 200) [3]: 2%
rsd Xa, HNE (CA #51, stg 1 conc 200) [3]: -3%
IC50 IIa/UFH (HCA #5) [4]: 0.055 µM
rsd IIa, no add (CA #51, stg 1 conc 200) [4]: 1%
B7: LEAQ.507 (other)
chain: B2 chain with E387R, D389Q

IC50 fXa/UFH; HCA #2 [5]: 0.275 µM
IC50 fXa/UFH; HCA #3 [5]: 0.32 µM
rsd. Xa catG; CA #12; stg1 conc 200 [5]: 48%
rsd. Xa catG; CA #14; stg1 conc 200 [5]: 59%
rsd. Xa catG; CA #15; stg1 conc 200 [5]: 82%
rsd. Xa hne; CA #12; stg1 conc 200 [5]: 86%
rsd. Xa hne; CA #14; stg1 conc 200 [5]: 100%
rsd. Xa hne; CA #15; stg1 conc 200 [5]: 103%
rsd. Xa no add; CA #12; stg1 conc 200 [5]: 45%
rsd. Xa no add; CA #14; stg1 conc 200 [5]: 44%
rsd. Xa no add; CA #15; stg1 conc 200 [5]: 57%
IC50 IIa/UFH; HCA #2 [6]: 0.037 µM
IC50 IIa/UFH; HCA #3 [6]: 0.035 µM
rsd. IIa catG; CA #12; stg1 conc 200 [6]: 0%
rsd. IIa catG; CA #14; stg1 conc 200 [6]: 1%
rsd. IIa catG; CA #15; stg1 conc 200 [6]: 1%
rsd. IIa hne; CA #12; stg1 conc 200 [6]: 62%
rsd. IIa hne; CA #14; stg1 conc 200 [6]: 41%
rsd. IIa hne; CA #15; stg1 conc 200 [6]: 65%
rsd. IIa no add; CA #12; stg1 conc 200 [6]: 0%
rsd. IIa no add; CA #14; stg1 conc 200 [6]: 2%
rsd. IIa no add; CA #15; stg1 conc 200 [6]: 2%
B8: LEAI.471 (other)
chain: B2 chain with D389R

From US20060259987A1 (UNIVERSITY OF UTAH RESEARCH FOUNDATION, published 2006)
